{"source": "paper doi:10.1101/2023.07.07.548133", "target": "cytosolic PAS domain (PASc) of the bacterial citrate sensor histidine kinase (CitA)", "experiment": "MINFLUX fluorescence nanoscopy", "data": [{"substance": "cytosolic PAS domain (PASc) of the bacterial citrate sensor histidine kinase (CitA) (domain or fragment)", "values": [{"measurement": "stoichiometry N", "value": 2}]}]}
